Measurements: patent US20220195059A1, “Rank Pathway Inhibitors in Combination with CDK Inhibitors” (INSTITUTO DE MEDICINA MOLECULAR JOÃO LOBO ANTUNES, priority 2019, published 2022)

Experiments:
[1] = test system: RANKL-driven RANK pathway activation (ERK, AKT phosphorylation); test: RANKL stimulation and RANKL neutralization, western blot; assay type: cell-based, human; details: 1 μg/ml RANKL; serum starved cells
Description: It was also confirmed that OPG-Fc is able to neutralize RANKL. Protein expression was assessed by western blot. Cells were seeded in 6-well plates, serum starved for 24 h, and exposed to 1 μg/ml RANKL for the indicated time points (FIG. 26A). For RANKL neutralization (FIG. 26B), RANKL was previously incubated for 60 min at 37° C. in serum-depleted medium±100 ng/ml OPG-Fc or 2.5 μg/ml MAB626, and proteins analyzed after 60 min. β-Actin was used as loading control and band intensity was quantified using FiJi. […] In the presence of OPG-Fc or the anti-RANKL monoclonal antibody MAB626, RANKL-driven RANK pathway activation was decreased (FIG. 26B).
(§1) For this purpose, 4×10^5 cells were seeded in 6-well plates for 24 h, and serum-starved in low-serum medium (0,1% FBS, 1% Pen/Step) for another 24 h. […] Total protein was quantified using Pierce BCA Protein Assay Kit (ThermoSicentific), according to manufacturer's instructions. […]
(§2) Membranes were blocked for 1 h at room temperature (RT) in 5% Non-Fat Dry Milk (NFDM) in PBS-0.1% Tween (PBST) for β-actin; or in 5% bovine serum albumin (BSA) (Santa Cruz) for other antibodies. […] Proteins were detected using a Novex® ECL HRP chemiluminescent substrate reagent kit (Invitrogen) according to the manufacturer's instructions, and x-ray films (Fujifilm) developed in a Curix 60 processor (AGFA), or the Amersham™ Imager 680 (GE Healthcare Life Sciences).

MCF-7 RANK OE xenografts = test: MCF-7^OE orthotopic xenograft growth with exogenous sRANKL; assay type: in vivo, NSG mice; details: human sRANKL 0.5 mg/every 48 h s.c. vs vehicle; eight weeks
Description: Nod scid gamma (NSG) mice were inoculated in the 2nd thoracic mammary fat pad with MCF-7 RANK OE GFP+Luc+ (RANK OE) cells (n=3-4/group). Mice were treated with human sRANKL 0.5 mg/every 48 h s.c. or vehicle (PBS). Tumors were imaged by bioluminescence every week post tumor inoculation untill the end of the experience (eight weeks). FIG. 10A is a graph of the total flux (p/s) measured at the end of experiment. FIG. 10B is a graph of tumor weight at the time of sacrifice for tumors derived from MCF-7 OE cells taken from mice treated with (+) or without (−) sRANKL. FIG. 10C is a graph of the Ki67-positive stained cells from tumors derived from MCF-7 OE cells taken from mice treated with (+) or without (−) sRANKL. Data is presented as mean±SEM. p-value was calculated using 2-way ANOVA or unpaired t-test, *p<0.05, **p<0.01, ***p<0.001.
Tumor growth was monitored weekly by luminescence analysis.
To determine whether the decreased proliferation rate was due to RANKL availability, NSG mice were inoculated with one of Parental, RANK OE, or Mix cells, as described above, and treated with human soluble RANKL or vehicle control subcutaneously.

[2] = test system: phosphorylation of IkBα, NFkB, ERK and AKT in MCF-7 OE and T47D OE cells; test: RANK signalling after sRANKL stimulation of RANK OE cells, western blot; assay type: cell-based, human; details: 1 μg/mL sRANKL
Description: FIG. 1C provides data that show the activation of RANK signaling pathway. After 24 h in low-serum medium, MCF-7 and T47D cells, or their RANK-overexpressing counterparts MCF-7^OE and T47D^OE, were stimulated with 1 μg/mL soluble RANK ligand (sRANKL) for 0, 5, 10, 20, 40, or 60 min (top panel) or 0, 5, 10, or 25 min (bottom panel). Cell lysates were western blotted using the antibody specific for the indicated protein (IκBα; NK-κB p65; ERK1/2; AKT), or for a phosphorylated version thereof (p-IκBα (Ser32); p-NK-κB p65 (Ser536); p-ERK1/2; p-AKT). β-Actin was used as loading control.
as §1
as §2, with “Sciences). […]” for “Sciences).”

B1: sRANKL: soluble RANK ligand used as stimulus (protein)
chain: EKAMVDGSWLDLAKRSKLEAQPFAHLTINATDIPSGSHKVSLSSWYHDRGWAKISNMTFSNGKLIVNQDGFYYLYANICFRHHETSGDLATEYLQLMVYVTKTSIKIPSSHTLMKGGSTKYWSGNSEFHFYSINVGGFFKLRSGEEISIEVSNPSLLDPDQDATYFGAFKVRDID
phosphorylation of RANK-downstream factors, like ERK and AKT [1]: drives the phosphorylation | tumor growth (MCF-7 RANK OE xenografts): did not affect | RANK pathway activity after stimulation [2]: increased RANK pathway activity
